Target: Thermococcus celer 30S small ribosomal subunit (T. celer (endogenous in T. celer cells)) (UniProt P29161)
Experiment: cryo-EM structure; post-splitting complex from 1 nmol T. celer 70S split by ABCE1^IIEA (8 uM), aPelota and aRF1 (5 uM each), 0.5 mM AMP-PNP, 50 mM HEPES-KOH pH 7.5, 30 mM KCl, 10 mM MgCl2, 2 mM DTT, 65 °C 15 min; cross-linked with 1% formaldehyde; 30S fractions of a 10-30% sucrose gradient

A percent of 30S particles associated with ABCE1 (3D classification) of 97% was found for “ABCE1^IIEA (E238A/E485A), hydrolysis-deficient ABCE1 from Saccharolobus solfataricus (from UniProt Q980K5 1-594) (enzyme)” in this work.

Source: publication PMC7196836, “Molecular analysis of the ribosome recycling factor ABCE1 bound to the 30S post‐splitting complex” (The EMBO Journal, 2020)
